Columns and labels:
FVIIa 407C [1] = target: T1, FVIIa 407C (human, UniProt P08709 61-212; P08709 213-466, N-glycosylated Asn322; engineered Cys407 is largely in mixed disulfides with glutathione, cysteine and homocysteine in the untreated preparation; whether the SPR sample was selectively reduced is not …); experiment: SPR (Biacore 3000), biotinylated sTF E219C on SA chip, FVIIa as analyte, 5 mM CaCl2, 1:1 Langmuir fit
T1 construct: range 1-152;range 153-406; Recombinant, expressed in BHK cells; DNA construct as described in WO 02/077218 A1; Light and heavy chain are joined by a disulfide bond; also called Factor VIIa 407C; FVII 407C
T1 sequence (light): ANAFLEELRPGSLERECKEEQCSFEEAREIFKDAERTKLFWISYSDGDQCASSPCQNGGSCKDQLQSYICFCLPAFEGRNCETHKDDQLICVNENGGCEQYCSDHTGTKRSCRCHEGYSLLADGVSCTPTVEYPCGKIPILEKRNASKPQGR
T1 sequence (heavy): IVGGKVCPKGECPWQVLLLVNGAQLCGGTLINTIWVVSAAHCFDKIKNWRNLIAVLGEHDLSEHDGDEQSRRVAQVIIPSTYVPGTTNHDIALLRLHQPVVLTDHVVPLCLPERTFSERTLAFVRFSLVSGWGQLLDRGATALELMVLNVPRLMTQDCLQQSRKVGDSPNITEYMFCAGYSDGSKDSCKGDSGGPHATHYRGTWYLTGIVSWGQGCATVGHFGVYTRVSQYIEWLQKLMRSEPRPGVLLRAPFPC
Procedure: (§1) Surface plasmon resonance (SPR) analysis of the binding of FVIIa 407C, FVIIa 407C-PEG3.4 k-FVIIa 407C, and FVIIa 407C-PEG20k-FVIIa 407C to immobilized soluble tissue factor—Binding of FVIIa 407C and PEGylated variants to immobilized soluble tissue factor was analyzed by surface plasmon resonance analysis on a Biacore 3000 instrument (Biacore AB, Uppsala, Sweden). Prior to immobilization, sTF E219C was biotinylated at its free cysteine by reacting the protein with 2 mM biotin-PEO-iodoacetamide at pH 7.0 for 20 min. Excess reagent was subsequently removed by gelfiltration on a NAP™5 column (Amersham Biosciences AB, Uppsala, Sweden) equilibrated in HBS-P buffer (10 mM HEPES, 150 mM NaCl, 0.005% P20; Biacore AB, Uppsala, Sweden) containing 5 mM CaCl₂. Biotinylated sTF E19C was immobilized at a density of 2.2 fmol/mm² (˜50 RU) in flow cell 2 of a SA sensor chip (Biacore AB, Uppsala, Sweden). Kinetic analysis was performed at a flow rate of 30 μl/min in running buffer (HBS-P buffer containing 5 mM CaCl₂) using the untreated flow cell 1 for automatic in-line reference subtraction. Serial dilutions of protein from 100 nM to approx. 5 nM were analyzed. Following 3 min equilibration of the flow cells in running buffer, 90 μl protein sample was injected using the KINJECT command. The dissociation phase lasted 9 min and regeneration was performed with a 3-min pulse of 20 mM EDTA in HBS-P buffer. […]

FVIIa 407C [2] = target: T1, FVIIa 407C; experiment: SPR (Biacore 3000), biotinylated sTF E219C on SA chip, FVIIa as analyte; KD calculated from kon and koff
Procedure: as §1

[3] = target: T2, FVIIa 407C-PEG3.4k-FVIIa 407C (human, UniProt P08709 61-212; P08709 213-466, N-glycosylated Asn322; Cys407 of the two protomers cross-linked through maleimide-PEG3.4k-maleimide; 10 gamma-carboxylated glutamic acid (GLA) residues; O-glycosylated Ser52 and Ser60; N-glycosylated …); experiment: SPR (Biacore 3000), biotinylated sTF E219C on SA chip, FVIIa dimer as analyte, 5 mM CaCl2, 1:1 Langmuir fit
T2 construct: range 1-152;range 153-406
T2 sequence (light): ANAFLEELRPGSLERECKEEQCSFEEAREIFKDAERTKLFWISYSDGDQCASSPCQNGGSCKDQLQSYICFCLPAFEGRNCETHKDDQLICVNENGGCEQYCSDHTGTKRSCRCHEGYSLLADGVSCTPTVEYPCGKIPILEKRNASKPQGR
T2 sequence (heavy): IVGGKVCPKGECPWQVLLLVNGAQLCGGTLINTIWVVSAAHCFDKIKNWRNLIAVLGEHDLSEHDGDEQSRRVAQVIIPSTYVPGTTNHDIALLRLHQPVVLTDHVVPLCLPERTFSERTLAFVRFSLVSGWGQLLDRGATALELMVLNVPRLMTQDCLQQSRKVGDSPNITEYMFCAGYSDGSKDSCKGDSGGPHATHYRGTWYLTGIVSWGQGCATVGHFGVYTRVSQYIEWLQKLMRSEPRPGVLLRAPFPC
Procedure: (§2) Surface plasmon resonance (SPR) analysis of the binding of FVIIa 407C, FVIIa 407C-PEG3.4 k-FVIIa 407C, and FVIIa 407C-PEG20k-FVIIa 407C to immobilized soluble tissue factor—Binding of FVIIa 407C and PEGylated variants to immobilized soluble tissue factor was analyzed by surface plasmon resonance analysis on a Biacore 3000 instrument (Biacore AB, Uppsala, Sweden). Prior to immobilization, sTF E219C was biotinylated at its free cysteine by reacting the protein with 2 mM biotin-PEO-iodoacetamide at pH 7.0 for 20 min. Excess reagent was subsequently removed by gelfiltration on a NAP™5 column (Amersham Biosciences AB, Uppsala, Sweden) equilibrated in HBS-P buffer (10 mM HEPES, 150 mM NaCl, 0.005% P20; Biacore AB, Uppsala, Sweden) containing 5 mM CaCl₂. Biotinylated sTF E19C was immobilized at a density of 2.2 fmol/mm² (˜50 RU) in flow cell 2 of a SA sensor chip (Biacore AB, Uppsala, Sweden). Kinetic analysis was performed at a flow rate of 30 μl/min in running buffer (HBS-P buffer containing 5 mM CaCl₂) using the untreated flow cell 1 for automatic in-line reference subtraction. Serial dilutions of protein from 100 nM to approx. 5 nM were analyzed. Following 3 min equilibration of the flow cells in running buffer, 90 μl protein sample was injected using the KINJECT command. The dissociation phase lasted 9 min and regeneration was performed with a 3-min pulse of 20 mM EDTA in HBS-P buffer. SPR data were fitted to a 1:1 Langmuir binding model using BIAevaluation 4.1 software (Biacore AB, Uppsala, Sweden).

[4] = target: T3, FVIIa 407C-PEG20k-FVIIa 407C (human, UniProt P08709 61-212; P08709 213-466, N-glycosylated Asn322; Cys407 of the two protomers cross-linked through maleimide-PEG20k-maleimide; 10 gamma-carboxylated glutamic acid (GLA) residues; O-glycosylated Ser52 and Ser60; N-glycosylated …); experiment: as above
T3 construct: range 1-152;range 153-406
T3 sequence (light): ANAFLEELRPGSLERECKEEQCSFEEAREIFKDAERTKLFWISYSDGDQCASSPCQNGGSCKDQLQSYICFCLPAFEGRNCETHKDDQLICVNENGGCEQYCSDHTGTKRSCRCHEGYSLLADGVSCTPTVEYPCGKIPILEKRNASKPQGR
T3 sequence (heavy): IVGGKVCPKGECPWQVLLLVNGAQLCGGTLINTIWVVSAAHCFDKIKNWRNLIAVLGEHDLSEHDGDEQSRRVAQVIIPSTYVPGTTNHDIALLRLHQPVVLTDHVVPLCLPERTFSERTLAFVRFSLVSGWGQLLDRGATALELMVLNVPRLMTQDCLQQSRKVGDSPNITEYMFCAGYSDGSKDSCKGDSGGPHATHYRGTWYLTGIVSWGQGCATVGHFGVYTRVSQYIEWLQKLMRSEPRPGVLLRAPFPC
Procedure: as §2

[5] = target: T2, FVIIa 407C-PEG3.4k-FVIIa 407C; experiment: SPR (Biacore 3000), biotinylated sTF E219C on SA chip, FVIIa dimer as analyte; KD calculated from kon and koff
Procedure: as §1

[6] = target: T3, FVIIa 407C-PEG20k-FVIIa 407C; experiment: as above
Procedure: as §1

- koff (FVIIa 407C [1]): 0.0015 s⁻¹
- kon (FVIIa 407C [1]): 280000 M⁻¹ s⁻¹
- Kd (FVIIa 407C [2]): 5500 pM
- koff [3]: 0.00015 s⁻¹
- kon [3]: 350000 M⁻¹ s⁻¹
- koff [4]: 0.00016 s⁻¹
- kon [4]: 310000 M⁻¹ s⁻¹
- Kd [5]: 400 pM
- Kd [6]: 500 pM
B1: sTF (1-219) Glu219→Cys (E219C), biotinylated (receptor)
chain: SGTTNTVAAYNLTWKSTNFKTILEWEPKPVNQVYTVQISTKSGDWKSKCFYTTDTECDLTDEIVKDVKQTYLARVFSYPAGNVESTGSAGEPLYENSPEFTPYLETNLGQPTIQSFEQVGTKVNVTVEDERTLVRRNNTFLSLRDVFGKDLIYTLYYWKSSSSGKKTAKTNTNEFLIDVDKGENYCFSVQAVIPSRTVNRKSTDSPVECMGQEKGEFRC
modifications: Cys219 alkylated with biotin-PEO-iodoacetamide (biotinylated at its free cysteine) ; chain 1 pos 219: Cys alkylated with biotin-PEO-iodoacetamide (biotinylated at its free cysteine), written C. It was captured through this biotin on a streptavidin (SA) sensor chip.
notes: Immobilized on a streptavidin (SA) sensor chip at 2.2 fmol/mm^2 (~50 RU); also called sTF E219C; biotinylated sTF E19C

From patent US20090041744A1 (published 2009)
